Data as given in the RNAGym collection of RNA variant scans (doi:10.1073/pnas.2313332121).
This sample holds only a part of the variants without activity.

B1: TPR 5TU (parent)
chain: GGAUCUUCUCGAUCUAACAAAAAAGACAAAUCUGCCACAAAGCUUGAGAGCAUCUUCGGAUGCAGAGGCGGCAGCCUUCGGUGGCGCGAUAGCGCCAACGUUCUCAACUAUGACACGCAAAACGCGUGCUCCGUUGAAUGGAGUUUAUCAUG

Variants of: B1
Test: polymerase ribozyme fitness, log enrichment relative to wild type (log ratio); higher = more active; in vitro selection for triplet polymerase activity
Method in brief: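 Libraries of mutants in each subunit of a heterodimeric triplet polymerase ribozyme were generated by PCR and transcribed. In triplicate, each went through one in vitro selection round: annealing with biotinylated primer, partner subunit and triplets; frozen incubation at −7 °C; gel excision of extended constructs; streptavidin-bead capture; RT-PCR. Fitness, taken from Illumina sequencing of input and output libraries, is the logarithm of a genotype's enrichment over wild-type enrichment, averaged across replicates with inverse-variance weights. The logarithm is base 2, and genotypes needed ≥10 input reads and ≥1 read per output to be kept.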

Row | Variant | polymerase ribozyme fitness (log ratio)
1 | GGAUCUUCUCGAUCUAACCAAAAAGAGCAAUCUGCCACAAAGCUUGAGAGCAUCUUCCCAUGCCGAGGCGGCAGCCUUCGGUGGUGCGAUAGCGCCAACGUUCUCAACUAUGACACGCAAAACGCGUGCUCCGUUGAAUGGAGUUUAUCAUG [A19C C27G A28C G58C G59C A64C C85U] | ≤ -4.2
2 | GGAUCUUCUCGAUCUAACAAAAAAGACAAAUCUGCCACAAAGCUUGAGAGCAUCUUCGAAUGCAGAGGCGGCAGCCUUCGGUGGCGCGAUAACGCCAACGUUCUCAACUAUGACACGCAAAACGCGUACUCCGUUGAAUGGAGUUUAUCAUG [G59A G92A G128A] | -4.02
3 | GGAUCUUCUCGAUUUAACAAAAAAGACAAAUCUGCCACAAAGCUUGAGAGCAUCUUCGGAUGCAGAGGCGGCAGCCUUCGGUGGCGCGAUAGCGCUAACGUUCUCAACUAUGACACGCAAAACGCGUGCUCCGUUGAAUGGAGUUUAUCAUG [C14U C96U] | -0.908
4 | GGAUCUUCUCGAUCUAACAAAAAAGACAAAUCUGCCACAAAGCUUGAGGGCAUCUUCGGAUGCAGAGGCGGCAGCCUUCGGUGGCGCGAUAACGCCAACGUUCUCAACUAUGACACGCAAAACGCGUGCUCCGUUGAAUGGAGUUUAUCAUG [A49G G92A] | -3.9
5 | GGAUCUUCUCGAUCUUACAAAAAAGACAAAUCUGCAACAAAGCUUGAGAGCAUCUUCGGAUGCAGAGGCGGCAGCCUUCGGUGGCGCGAUAUCGCCAACGUUCUCAACUAUGACACGCAAAACGCGUGCUCCGUUGAAUGGAGUUUAUCUUG [A16U C36A G92U A150U] | ≤ -4.2
6 | GGAUCAUCUCGAUCUAACAAAUAAGAAAAAUCUGCCACAAAGCUUGAGAGCAUAUUAGGAUGCAGAGGCGGCAGCUUCCGGUGGCGUGAUAGCGCCAACGUUCUCAACUAUGACACGCAAAACGCGUCCUCCGUUGGAUGCAGUUUAUCAUG [U6A A22U C27A C54A C57A C76U U78C C87U G128C A137G G141C] | ≤ -4.2
7 | GGAUCUUCUCGAGCUAACAAAAAAGACAAAUCUGCCUCAAAGCUUGAGAGCAUCUUCGGAUGCAGAGGCGGCAGCGUUCGGUGUCGCGAUAGCGCCAACGUUCUCAUCUAUGACACGCAAAAUGCGUGCUCCGUUGAAGGGAGUUUAUCAUG [U13G A37U C76G G84U A107U C123U U139G] | ≤ -4.2
8 | GGAUCUUCUCGAUCUAACAAAGAAGACAAAUUUGCCACAAAGCUUGAGAGCAUCUUCGGAUGCAGAGGCGGCAGCCUUCGGUGGCGCGAUAGCGCCAACGUUGUCAACUAUGACACGCAAAACGCGUGCUCCGUUGAAUGGAGUUUGUCAUA [A22G C32U C103G A147G G152A] | ≤ -4.2
9 | GGAUCAUCUCGAUCUAACAAAAAAGACAAAUCUGCCACAAAGCUUGAGAGCAUCUUCGGAUGCAGAGGCGGCAGCCUUCGGUGGCGCGAUAGCGCCAACGUUCUCAACUAUGACACGCAAAACGCGUGCUCCGUUGAAUGGCGUUUAUCAUG [U6A A142C] | -0.741
10 | GGAUCUUCUCGAUCUAACAAAAAAGACAAAUCUGCCACUAAGCUUGAGAGCAUCUUCGGAUGCAGAGGCGGCAGCCUUCGGUGGCGCGAUAGCGCUAACGUUCUCAACUAUGACACGCAAAACGCGUGCUCCGUUGAAUGGAGUUUAUCAUG [A39U C96U] | -2.1
11 | GGAUCUUCUCGAUCUAACAAAAAAGACAAAUCUGCCACAAAGCUUGAGAGCAUCUUCGGAUGCAGAGGCGGCAGCCUUCGGUGGCGCGAUAGCGCCUACGUUCUCAACUAUGACACGCAAAACUCGUGCUCCGUUGAAUGGAGUUUAUGAUG [A97U G124U C149G] | -3.65
12 | GGAUCUUCUCGAUCUAACAAAAAAGACAAAUCUGCCACAAAGCUUGAGAGCAACUUCGGAUGCAGAGGCGGCAGCCUUCGGUGGCGCGAUAGCGCCAACGUUCUCAACUAUGACACGCAAAACGCGUGCUCCGUUGAAUGGAGUUUAUGAUG [U53A C149G] | -3.71
13 | GGAUCUUCUCGACCUAACAAAAAAGACAAAUCUGCCACAAAGCUUGAGAGCAUCUUCGUAUGCAGAGGCGGCAGCCUUCGGUGGCGCGAUAGGGCCAACGUUCUCAACUAUGACACGCAAAACGCGUGCUCCGUUGAGUGGAGUUUAUCAUG [U13C G59U C93G A138G] | ≤ -4.2
14 | GGAUCUUCUCGAUCUAACAAAAAAGACAAAUCUGCCACAAAGCUAGAGAGCAUCUUCGGAUGCAGAGGCGGGAGCCUUUGGUUGCGCGAUAGCGCCAACGUUCGCAACUAUGACACGCAAAACGCGUGCUCCGUUGAAUGGAGUUUAUCAUG [U45A C72G C79U G83U U104G] | ≤ -4.2
15 | GGAUCUUCUCGAUCUAACAUAAAAGACAAAUUUGCCACAAAGCUUGAGAGCAUCUUCGGAUGCAGAGGCGGCAGCCGUCGGUGGCGCGAUAGCGCCAACGUUCUCAACUAUGACACGCAAAACGCGUGCUCCGUUGAAUGGUGUUUAUCAUG [A20U C32U U77G A142U] | ≤ -4.2
16 | GGAUCUUCUCGAUCUAACAAAAAAGACAAAGCUGCCACAAAGCUUGAGAGCAUCUUCGGAUGCAGAGGCGGCAGCCUUCGGUGGCGCGAUAGCGCCAACGUUCUCAACUAUGUCACGCAAAACGCGUGCUCCGGUGAAUGGAGUUUAUCAUG [U31G A113U U134G] | -3.56
17 | GGAUCUUCUCGAUCUAACAUAAAAGACAAAUCUGCCACAAAGCUUGAGAGCAUCUUCGGAUGCAGAGGCGGCAGCCUUCGGUGGCGUCAUAGCGCCAACGAUCUCAACUAUGACACGCAAAACGCGUGCUCCGUUGAAUGGAGUUGAUCAUG [A20U C87U G88C U101A U146G] | ≤ -4.2
18 | GGAUCUUCUCGAUCUAACACAAAAGACUAAUCUGACACAAAGCUUGAGAGCAUCUUCGGAUGCAGAUGCGGCAGCCUUCGGUGGCGCGAUAGCGCCAACGUACUCAACUAUGACACGCAAAACGCGUGCUCCGUUGAAUGGAGUUUAUCAUG [A20C A28U C35A G67U U102A] | ≤ -4.2
19 | GGAUCUUCUCGAUCUAACAAAAAAGACAAAUCUGCCACAAAGCUUGAGAGCAUCUUCAGAUGCAGAGGCGGCAGCCUUCUGUGGCGCGAUAGCGCCAACGUUCUCAACUAUGACACGCAAAACGCGUGCUCCGUUGAAUGGAGUUUAUCAGG [G58A G80U U151G] | ≤ -4.2
